Laboratory results published in the supplement of paper PMC10065799, “High-throughput profiling of sequence recognition by tyrosine kinases and SH2 domains using bacterial peptide display” (eLife, 2023).

Assays:
AncSZ = experiment: phosphorylation enrichment, bacterial display (enrichment ratio); higher = better substrate or ligand; peptides without Tyr show the background
EPHB1 = EPHB1 (UniProt P54762); experiment: as above
EPHB2 = EPHB2 (UniProt P29323); experiment: as above
FGFR1 = FGFR1 (UniProt P11362); experiment: as above
FGFR3 = FGFR3 (UniProt P22607); experiment: as above
Chain of FGFR3 (P22607 whole entry, looked up): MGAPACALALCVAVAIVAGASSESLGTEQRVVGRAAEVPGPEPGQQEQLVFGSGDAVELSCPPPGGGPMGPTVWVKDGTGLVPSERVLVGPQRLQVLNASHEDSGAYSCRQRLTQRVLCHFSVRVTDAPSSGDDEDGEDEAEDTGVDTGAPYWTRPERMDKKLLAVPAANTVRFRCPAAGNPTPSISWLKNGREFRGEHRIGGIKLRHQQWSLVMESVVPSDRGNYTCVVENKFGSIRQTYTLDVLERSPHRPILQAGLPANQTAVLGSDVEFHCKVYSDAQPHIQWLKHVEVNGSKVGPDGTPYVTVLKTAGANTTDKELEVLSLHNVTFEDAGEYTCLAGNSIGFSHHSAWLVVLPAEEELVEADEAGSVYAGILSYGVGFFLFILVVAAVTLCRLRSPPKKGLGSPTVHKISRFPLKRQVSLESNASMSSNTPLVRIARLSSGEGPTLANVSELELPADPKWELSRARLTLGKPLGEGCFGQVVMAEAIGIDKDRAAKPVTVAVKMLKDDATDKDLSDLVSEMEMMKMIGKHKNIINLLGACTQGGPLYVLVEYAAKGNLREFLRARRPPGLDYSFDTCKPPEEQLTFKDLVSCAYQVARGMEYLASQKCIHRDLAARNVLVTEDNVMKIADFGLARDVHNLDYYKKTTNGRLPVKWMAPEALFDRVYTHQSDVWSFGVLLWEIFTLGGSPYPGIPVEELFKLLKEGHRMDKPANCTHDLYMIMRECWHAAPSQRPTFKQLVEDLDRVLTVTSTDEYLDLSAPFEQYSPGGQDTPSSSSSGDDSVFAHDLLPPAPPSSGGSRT

Fer (mouse) = experiment: as above
Fes = Fes (UniProt P07332); experiment: as above
Chain of Fes (P07332 whole entry, looked up): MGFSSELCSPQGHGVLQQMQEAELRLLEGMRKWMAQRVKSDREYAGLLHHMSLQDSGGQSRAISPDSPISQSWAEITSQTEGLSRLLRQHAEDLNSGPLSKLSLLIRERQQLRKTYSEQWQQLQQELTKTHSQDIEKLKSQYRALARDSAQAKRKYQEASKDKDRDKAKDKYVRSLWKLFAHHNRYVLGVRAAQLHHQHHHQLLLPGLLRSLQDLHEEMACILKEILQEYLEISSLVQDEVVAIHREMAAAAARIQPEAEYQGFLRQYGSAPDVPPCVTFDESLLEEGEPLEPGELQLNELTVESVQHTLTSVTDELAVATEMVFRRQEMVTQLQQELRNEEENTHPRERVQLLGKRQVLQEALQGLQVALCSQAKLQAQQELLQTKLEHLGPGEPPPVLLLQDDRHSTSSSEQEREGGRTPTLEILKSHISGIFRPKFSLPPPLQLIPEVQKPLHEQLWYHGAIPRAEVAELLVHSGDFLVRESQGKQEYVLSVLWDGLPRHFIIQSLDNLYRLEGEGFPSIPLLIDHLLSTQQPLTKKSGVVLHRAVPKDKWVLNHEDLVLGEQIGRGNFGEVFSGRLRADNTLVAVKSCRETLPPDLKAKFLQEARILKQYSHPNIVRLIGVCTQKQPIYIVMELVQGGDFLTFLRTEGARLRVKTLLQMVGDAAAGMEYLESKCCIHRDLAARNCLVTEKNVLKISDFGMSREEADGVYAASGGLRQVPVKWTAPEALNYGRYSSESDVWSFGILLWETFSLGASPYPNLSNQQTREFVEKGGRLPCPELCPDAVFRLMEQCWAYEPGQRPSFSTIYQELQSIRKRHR

Fyn = Fyn (UniProt P06241); experiment: as above
Chain of Fyn (P06241 whole entry, looked up): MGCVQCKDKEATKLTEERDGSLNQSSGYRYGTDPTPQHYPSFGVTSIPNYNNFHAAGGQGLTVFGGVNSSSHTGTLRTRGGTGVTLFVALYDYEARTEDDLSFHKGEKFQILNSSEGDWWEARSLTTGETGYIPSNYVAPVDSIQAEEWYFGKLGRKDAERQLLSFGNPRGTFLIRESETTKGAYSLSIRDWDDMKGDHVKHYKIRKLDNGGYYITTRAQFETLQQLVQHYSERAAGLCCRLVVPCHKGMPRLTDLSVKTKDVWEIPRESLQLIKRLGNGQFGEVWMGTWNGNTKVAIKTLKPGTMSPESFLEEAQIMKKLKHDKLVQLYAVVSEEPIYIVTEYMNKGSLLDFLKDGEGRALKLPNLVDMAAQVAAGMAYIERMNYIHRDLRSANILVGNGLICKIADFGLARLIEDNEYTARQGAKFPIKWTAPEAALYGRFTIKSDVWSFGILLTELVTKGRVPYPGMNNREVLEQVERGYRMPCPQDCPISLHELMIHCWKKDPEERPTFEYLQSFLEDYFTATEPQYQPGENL

Hck = Hck (UniProt P08631); experiment: as above
Chain of Hck (P08631 whole entry, looked up): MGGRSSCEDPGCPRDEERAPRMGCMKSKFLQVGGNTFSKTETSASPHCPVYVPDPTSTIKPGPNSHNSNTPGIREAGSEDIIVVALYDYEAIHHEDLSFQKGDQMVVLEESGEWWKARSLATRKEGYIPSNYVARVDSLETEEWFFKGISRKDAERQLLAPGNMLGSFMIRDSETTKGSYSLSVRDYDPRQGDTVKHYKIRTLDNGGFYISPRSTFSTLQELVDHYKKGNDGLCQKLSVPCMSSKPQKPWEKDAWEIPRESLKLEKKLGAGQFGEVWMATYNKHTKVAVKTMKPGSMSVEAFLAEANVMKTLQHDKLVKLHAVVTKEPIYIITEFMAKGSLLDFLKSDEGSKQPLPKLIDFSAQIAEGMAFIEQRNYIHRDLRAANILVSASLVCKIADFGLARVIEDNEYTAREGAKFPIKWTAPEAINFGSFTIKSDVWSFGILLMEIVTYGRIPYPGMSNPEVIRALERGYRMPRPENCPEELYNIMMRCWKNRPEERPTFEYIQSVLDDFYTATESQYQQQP

Jak2 = Jak2 (UniProt O60674); experiment: as above
Chain of Jak2 (O60674 whole entry, looked up): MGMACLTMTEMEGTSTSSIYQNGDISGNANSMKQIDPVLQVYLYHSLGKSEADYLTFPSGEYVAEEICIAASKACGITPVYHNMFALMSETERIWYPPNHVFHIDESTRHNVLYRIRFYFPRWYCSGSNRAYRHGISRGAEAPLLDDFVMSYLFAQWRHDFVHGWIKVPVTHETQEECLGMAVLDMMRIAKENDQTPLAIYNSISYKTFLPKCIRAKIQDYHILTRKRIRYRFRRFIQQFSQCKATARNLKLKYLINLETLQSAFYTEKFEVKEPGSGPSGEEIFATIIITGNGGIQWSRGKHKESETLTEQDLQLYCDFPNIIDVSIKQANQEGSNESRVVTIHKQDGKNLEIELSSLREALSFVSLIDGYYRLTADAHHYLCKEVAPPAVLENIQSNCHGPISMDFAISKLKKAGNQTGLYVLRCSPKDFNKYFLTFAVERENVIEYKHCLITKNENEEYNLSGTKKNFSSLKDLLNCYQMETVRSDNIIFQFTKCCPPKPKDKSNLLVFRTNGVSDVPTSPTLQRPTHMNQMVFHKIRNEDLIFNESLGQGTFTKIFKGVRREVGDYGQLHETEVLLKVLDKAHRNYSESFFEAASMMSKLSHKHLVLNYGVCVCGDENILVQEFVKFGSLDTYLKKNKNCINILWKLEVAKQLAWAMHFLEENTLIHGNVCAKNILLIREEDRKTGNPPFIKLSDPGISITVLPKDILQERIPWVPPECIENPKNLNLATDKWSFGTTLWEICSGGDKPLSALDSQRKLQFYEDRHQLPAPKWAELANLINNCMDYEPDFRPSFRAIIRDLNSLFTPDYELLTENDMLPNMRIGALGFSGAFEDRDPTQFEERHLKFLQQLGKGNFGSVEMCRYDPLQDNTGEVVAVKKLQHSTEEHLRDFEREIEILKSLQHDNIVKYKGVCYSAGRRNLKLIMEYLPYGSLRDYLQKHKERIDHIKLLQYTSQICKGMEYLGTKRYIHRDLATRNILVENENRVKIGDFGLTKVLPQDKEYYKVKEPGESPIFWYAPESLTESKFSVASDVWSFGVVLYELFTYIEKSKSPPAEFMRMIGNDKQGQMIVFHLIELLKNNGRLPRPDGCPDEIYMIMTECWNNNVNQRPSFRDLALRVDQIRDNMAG

MERTK = MERTK (UniProt Q12866); experiment: as above
Chain of MERTK (Q12866 whole entry, looked up): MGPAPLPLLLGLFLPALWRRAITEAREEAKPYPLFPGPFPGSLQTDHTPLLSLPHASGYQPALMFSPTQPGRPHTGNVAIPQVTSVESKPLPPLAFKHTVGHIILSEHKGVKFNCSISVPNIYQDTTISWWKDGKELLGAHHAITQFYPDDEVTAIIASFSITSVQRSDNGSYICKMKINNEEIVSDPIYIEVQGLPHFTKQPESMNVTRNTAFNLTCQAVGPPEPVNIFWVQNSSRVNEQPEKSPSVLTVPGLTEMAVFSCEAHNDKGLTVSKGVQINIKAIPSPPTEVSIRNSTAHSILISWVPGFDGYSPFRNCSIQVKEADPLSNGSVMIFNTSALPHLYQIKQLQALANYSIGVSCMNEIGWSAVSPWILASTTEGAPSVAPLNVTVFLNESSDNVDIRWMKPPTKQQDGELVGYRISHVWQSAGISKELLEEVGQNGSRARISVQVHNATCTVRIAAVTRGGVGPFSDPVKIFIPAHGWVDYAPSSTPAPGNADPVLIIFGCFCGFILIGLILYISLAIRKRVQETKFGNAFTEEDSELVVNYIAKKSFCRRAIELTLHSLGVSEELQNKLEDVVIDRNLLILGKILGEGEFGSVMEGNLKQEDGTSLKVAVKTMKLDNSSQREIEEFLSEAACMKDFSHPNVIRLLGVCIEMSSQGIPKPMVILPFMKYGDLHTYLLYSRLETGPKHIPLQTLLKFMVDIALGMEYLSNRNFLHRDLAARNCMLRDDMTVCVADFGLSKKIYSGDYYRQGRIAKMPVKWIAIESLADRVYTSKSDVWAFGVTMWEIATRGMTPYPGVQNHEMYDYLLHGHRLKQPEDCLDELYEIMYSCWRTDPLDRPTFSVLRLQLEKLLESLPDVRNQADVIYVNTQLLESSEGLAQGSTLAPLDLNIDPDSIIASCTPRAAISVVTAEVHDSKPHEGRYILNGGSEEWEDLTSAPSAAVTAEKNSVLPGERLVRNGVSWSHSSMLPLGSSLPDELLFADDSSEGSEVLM

c-Abl (mouse) = experiment: as above
c-Src = experiment: as above
Grb2 SH2 = Grb2 SH2 (UniProt P62993); experiment: SH2 binding enrichment of the phosphorylated peptide, bacterial display (enrichment ratio); higher = better substrate or ligand; peptides without Tyr show the background
Chain of Grb2 SH2 (P62993 whole entry, looked up): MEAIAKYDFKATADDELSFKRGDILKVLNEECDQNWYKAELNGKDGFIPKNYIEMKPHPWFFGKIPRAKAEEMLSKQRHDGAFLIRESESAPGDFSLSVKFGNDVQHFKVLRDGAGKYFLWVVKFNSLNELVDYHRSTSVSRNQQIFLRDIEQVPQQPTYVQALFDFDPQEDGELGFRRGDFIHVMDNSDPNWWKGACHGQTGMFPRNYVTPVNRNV

SHP2-C SH2 = experiment: as above
c-Src SH2 = experiment: as above
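For SH2 binding enrichment of the phosphorylated peptide, bacterial display in this document: peptide library displayed on the E. coli surface as eCPX fusions, selected cells deep-sequenced, score is each peptide's frequency after selection divided by its frequency in the input.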
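For phosphorylation enrichment, bacterial display in this document: 11-residue human phosphosite peptides and single-mutation variants displayed on the E. coli surface, counted by deep sequencing, each peptide's frequency after selection divided by its frequency in the unselected input library; frequency after pTyr selection over input frequency; kinase dosed for 20-30% of maximal phosphorylation in three min.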

Sequence	phosphorylation enrichment (AncSZ)	phosphorylation enrichment (EPHB1)	phosphorylation enrichment (EPHB2)	phosphorylation enrichment (FGFR1)	phosphorylation enrichment (FGFR3)	phosphorylation enrichment (Fer (mouse))	phosphorylation enrichment (Fes)	phosphorylation enrichment (Fyn)	phosphorylation enrichment (Hck)	phosphorylation enrichment (Jak2)	phosphorylation enrichment (MERTK)	phosphorylation enrichment (c-Abl (mouse))	phosphorylation enrichment (c-Src)	SH2 binding enrichment (Grb2 SH2)	SH2 binding enrichment (SHP2-C SH2)	SH2 binding enrichment (c-Src SH2)
PEADKYRLPYA [FGG_Y300_T303P]	0.763	0.89	0.715	0.439	0.552	0.521	1	0.467	0.598	1.33	0.477	0.571	0.488	0.741	0.612	0.402
PEFMVYKPQME [CCRL2_Y170_V168M]	1.03	0.665	0.624	0.592	0.867	0.476	1.06	0.494	0.661	0.898	0.464	0.685	0.884	0.794	0.635	0.457
PESCFYKESWL [IQGAP2_Y630_L629F]	1.51	0.772	0.671	0.707	1.31	0.973	1.57	0.616	0.555	0.941	0.538	0.766	0.516	1.05	0.823	0.63
PEVSGYCHCAD [TG_Y234]	2.1	3.57	1.4	1.11	1.56	1.14	2.79	0.976	1.08	2.21	0.936	1.83	1.2	0.912	0.549	0.565
PFQGAYLKINK [MYO1B_Y967_E969K]	1.1	0.539	0.571	0.417	0.909	0.853	1.52	0.582	0.643	1.18	0.461	0.88	0.319	1.11	0.908	1.61
PFTRNYFVQAV [CYBA_Y87_R90Q_YF]	0.963	0.601	0.747	1.16	0.905	1.25	1.2	0.943	0.979	0.6	0.763	0.65	0.353	0.634	0.467	0.533
PGAGHYEDTIL [ALK_Y1604]	1.15	0.871	0.597	0.664	0.881	6.12	1.16	0.809	0.786	0.896	0.597	0.765	0.391	0.797	0.559	3.04
PGGNIYISPLK [RB1_Y805]	0.902	0.4	0.571	0.545	0.526	0.804	0.58	0.804	2.65	0.529	0.685	1.75	0.757	1.39	1.72	1.04
PGIRMYRVQYN [LRFN1_Y454_Q455R]	0.759	0.744	0.586	0.58	0.713	0.989	1.08	0.486	0.62	0.626	0.527	0.675	0.473	0.838	0.714	0.507
PGLRGYPGLSG [COL4A2_Y306]	0.709	0.894	0.442	0.621	0.468	0.449	0.87	0.481	0.505	1.45	0.599	0.508	0.674	0.958	0.698	0.383
PGQRVYVVAES [SHH_Y316_R321S]	1.06	0.695	0.507	0.494	0.848	0.728	1.45	0.538	0.748	1.07	0.377	0.896	0.546	0.756	0.892	0.55
PIPAAYNKYDQ [CDC73_Y290_R292K]	0.707	0.417	0.599	0.608	0.448	0.394	0.904	0.46	0.595	0.754	0.617	0.944	0.689	0.39	1.33	0.478
PKKKQYTSIHH [APP_Y728_L723P]	0.646	0.441	0.646	0.71	0.928	0.595	0.849	0.757	0.755	0.85	0.656	0.617	0.457	1.01	0.946	0.936
PLYGEYFTLQI [TP53_Y327_D324Y]	4.94	15.8	18.6	17.6	14.9	3.72	2.44	16.3	11.6	15.3	9.96	9.14	12.6	0.816	0.809	0.444
PNATLYKMSSI [SERPINA7_Y40]	0.592	0.456	0.325	0.406	0.495	0.397	0.55	0.35	0.401	0.358	0.361	0.472	0.349	0.85	0.375	0.395
PNLILYGDFRQ [MYH7_Y715_R712L]	1.09	0.688	0.602	0.552	0.762	0.72	1.28	5.16	2.87	0.75	0.465	0.766	2.98	0.944	0.823	0.482
